Results on one substance are retold here after paper doi:10.1101/2022.06.20.496707.

By stoichiometry N is commonly meant the number of molecules, sites or subunits per partner or assembly.

Assay [1] concerns the target Serratia NucC (type III-A CRISPR-Cas-associated accessory nuclease of Serratia sp. ATCC 39006) (Serratia sp. ATCC 39006). The assay is described as follows: crystal structure.
The target is the same in assay [2]. In words: crystal structure. The source holds these as a separate data set.

Where two headings read alike, the source gives them in different places.

With “Serratia NucC (type III-A CRISPR-Cas-associated accessory nuclease of Serratia sp. ATCC 39006) (enzyme)”, the stoichiometry N in assay [1] and in assay [2] was 6 throughout.
